Source: paper PMC7064778 (mBio, 2020)

B1: ferric pyochelin transporter FptA (receptor)
chain: DARKDGETELPDMVISGESTSATQPPGVTTLGKVPLKPRELPQSASVIDHERLEQQNLFSLDEAMQQATGVTVQPFQLLTTAYYVRGFKVDSFELDGVPALLGNTASSPQDMAIYERVEILRGSNGLLHGTGNPAATVNLVRKRPQREFAASTTLSAGRWDRYRAEVDVGGPLSASGNVRGRAVAAYEDRDYFYDVADQGTRLLYGVTEFDLSPDTLLTVGAQYQHIDSITNMAGVPMAKDGSNLGLSRDTYLDVDWDRFKWDTYRAFGSLEQQLGGGWKGKVSAEYQEADSRLRYAGSFGAIDPQTGDGGQLMGAAYKFKSIQRSLDANLNGPVRLFGLTHELLGGVTYAQGETRQDTARFLNLPNTPVNVYRWDPHGVPRPQIGQYTSPGTTTTTQKGLYALGRIKLAEPLTLVVGGRESWWDQDTPATRFKPGRQFTPYGGLIWDFARDWSWYVSYAEVYQPQADRQTWNSEPLSPVEGKTYETGIKGELADGRLNLSLAAFRIDLENNPQEDPDHPGPPNNPFYISGGKVRSQGFELEGTGYLTPYWSLSAGYTYTSTEYLKDSQNDSGTRYSTFTPRHLLRLWSNYDLPWQDRRWSVGGGLQAQSDYSVDYRGVSMRQGGYALVNMRLGYKIDEHWTAAVNVNNLFDRTYYQSLSNPNWNNRYGEPRSFNVSLRGAF

What was measured:
Conditions in all cases: both partners purified
[1] = molecular target: B1; experiment: native MS
[2] = molecular target: B1; experiment: SPR
PyoS5_(1–315) Δ2–39 = molecular target: T1, PyoS5_(1–315) Δ2–39 (P. aeruginosa, UniProt Q9I4Y4 1-315, Δ2–39); experiment: SPR
T1 construct: source: E. coli BL21(DE3), purified (HisTrap HP, Superdex 200 SEC)

PyoS5_(1–315) Δ2–9 = molecular target: T2, PyoS5_(1–315) Δ2–9 (P. aeruginosa, UniProt Q9I4Y4 1-315, Δ2–9); experiment: SPR
T2 construct: source: E. coli BL21(DE3), purified (HisTrap HP, Superdex 200 SEC)

PyoS5_(1–315) Δ10–13 = molecular target: T3, PyoS5_(1–315) Δ10–13 (P. aeruginosa, UniProt Q9I4Y4 1-315, Δ10–13); experiment: SPR
T3 construct: source: E. coli BL21(DE3), purified (HisTrap HP, Superdex 200 SEC)

| Binder | binding result [1] | Kd [2] [µM] | other results |
| --- | --- | --- | --- |
| PyoS5_(1–299) (domain or fragment) MSNDNEVPGSMVIVAQGPDDQYAYEVPPIDSAAVAGNMFGDLIQREIYLQKNIYYPVRSIFEQGTKEKKEINKKVSDQVDGLLKQITQGKREATRQERVDVMSAVLHKMESDLEGYKKTFTKGPFIDYEKQSSLSIYEAWVKIWEKNSWEERKKYPFQQLVRDELERAVAYYKQDSLSEAVKVLRQELNKQKALKEKEDLSQLERDYRTRKANLEMKVQSELDQAGSALPPLVSPTPEQWLERATRLVTQAIADKKQLQTTNNTLIKNSPTPLEKQKAIYNGELLVDEIASLQARLVKL | binds |  |  |
| Pyocin S5 (natural protein) MSNDNEVPGSMVIVAQGPDDQYAYEVPPIDSAAVAGNMFGDLIQREIYLQKNIYYPVRSIFEQGTKEKKEINKKVSDQVDGLLKQITQGKREATRQERVDVMSAVLHKMESDLEGYKKTFTKGPFIDYEKQSSLSIYEAWVKIWEKNSWEERKKYPFQQLVRDELERAVAYYKQDSLSEAVKVLRQELNKQKALKEKEDLSQLERDYRTRKANLEMKVQSELDQAGSALPPLVSPTPEQWLERATRLVTQAIADKKQLQTTNNTLIKNSPTPLEKQKAIYNGELLVDEIASLQARLVKLNAETTRRRTEAERKAAEEQALQDAIKFTADFYKEVTEKFGARTSEMARQLAEGARGKNIRSSAEAIKSFEKHKDALNKKLSLKDRQAIAKAFDSLDKQMMAKSLEKFSKGFGVVGKAIDAASLYQEFKISTETGDWKPFFVKIETLAAGAAASWLVGIAFATATATPIGILGFALVMAVTGAMIDEDLLEKANNLVISI | binds |  |  |
| PyoS5_(1–315) (domain or fragment, source: E. coli BL21(DE3), purified (HisTrap HP, Superdex 200 SEC)) MSNDNEVPGSMVIVAQGPDDQYAYEVPPIDSAAVAGNMFGDLIQREIYLQKNIYYPVRSIFEQGTKEKKEINKKVSDQVDGLLKQITQGKREATRQERVDVMSAVLHKMESDLEGYKKTFTKGPFIDYEKQSSLSIYEAWVKIWEKNSWEERKKYPFQQLVRDELERAVAYYKQDSLSEAVKVLRQELNKQKALKEKEDLSQLERDYRTRKANLEMKVQSELDQAGSALPPLVSPTPEQWLERATRLVTQAIADKKQLQTTNNTLIKNSPTPLEKQKAIYNGELLVDEIASLQARLVKLNAETTRRRTEAERKAA |  | 6.5 ± 0.4 |  |
| B1 |  |  | Kd (PyoS5_(1–315) Δ2–39): 14.7 ± 0.4 µM; binding result (PyoS5_(1–315) Δ2–9): binds; binding result (PyoS5_(1–315) Δ10–13): binds |
| PyoS5_(1–196) (domain or fragment, source: E. coli BL21(DE3), purified (HisTrap HP, Superdex 200 SEC)) MSNDNEVPGSMVIVAQGPDDQYAYEVPPIDSAAVAGNMFGDLIQREIYLQKNIYYPVRSIFEQGTKEKKEINKKVSDQVDGLLKQITQGKREATRQERVDVMSAVLHKMESDLEGYKKTFTKGPFIDYEKQSSLSIYEAWVKIWEKNSWEERKKYPFQQLVRDELERAVAYYKQDSLSEAVKVLRQELNKQKALKE |  | 7.1 ± 0.7 |  |
